# Data taken from the supplement of paper PMC9170038.
# System: MS2 coat protein
# Assay: apparent KD of MS2 coat protein, switch OFF state (with FMN for OFF switches, without FMN for ON switches); designed switch direction (-1 OFF switch, 1 ON switch): 1; higher = weaker reporter binding
# Settings: FMN input: 0 or 200 uM; Eterna round: R93 (includes R88 designs)
# In short: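 In 100 mM Tris-HCl pH 7.5 with 80 mM KCl and 4 mM MgCl2, and without or with constant ligand, SNAP-549-labelled MS2 coat protein was titrated in twofold steps from 0.7 or 1.5 nM to 3 µM. Per-step times went from 0.8–1.5 h down to 10–20 min. The RNA switches were transcribed on-chip from Illumina sequencing clusters, and apparent KD is the per-design median of normalised cluster binding-curve fits.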
row,Sequence,apparent KD of MS2 coat protein [nM]
1,AAAGAAAAACUAGAGGAUAUCUGAGUGGUAACAUGAGGAUCACCCAUGUGAAGAAAGGAGCAUGAGGAGAAGGCUAGAAGAAAAA [JL Nando mod 22],59
2,UGGAAACAUGAGGAUCACCCAUGUAAAAGGUGGUUAGGAUAUGCAAAACGGAAAACGAAAGCAGAAGGGACAAAAA [Inspired by JR and Meechl],320
3,UAGCAGUGCGGGUAGGAUAUGUAGGGUGGUACAUGAGGAUCACCCAUGUAUCCACCCUUCGACCGGCAGAAGGGCCUGUCACUGC [Edor],16.9
4,AAAUAAAUGACUCAGGAUAUAUCAUAGAAAACAUGAGGAUCACCCAUGUAAUAAUAACAUGUUUGGUAGAAGGGAGUCAAUAAAU [LROPPY Same State 2 - v04_deltaG=1.25],18.6
5,"AUAUAUAUAAGGAAGGAUAUCUUAGAAAAAACAUGAGGAUCACCCAUGUAAAUAAAGAAUAAAUGGGAGAAGGUCCAUAUAUAUA [77%, More Tesla, 10]",109
6,UCGUCCUCGUGCUAGGAUAUCCAUCGUAAAACAUGAGGAUCACCCAUGUAGAAAUGCGCCUACGAGGAGAAGGAGCGAUGUGGAU [Velemageer],19
7,GAGGACAUAGUACAGGAUAUAUGAAUAGUCACAUGAGGAUCACCCAUGUGCAUUUAUAUGCGCACAUAGAAGGGUGGUAGUUAUC [SameState2 Malc#28],67
8,GAGGACAUAGUACAGGAUAUAUGAAUAGUCACAUGAGGAUCACCCAUGUCCAUUUAUAUGGGCACAUAGAAGGGUGGUAGUUAUC [SameState2 Malc#27],347
9,AACUAACAUGAGGAUCACCCAUGUAAUCAAACAUGAGGAUAUAUAACACAUCAUCAACAGAUAGAAGGCAUAAAUA [JR_SS001_Sub1203],62.7
10,AAUAUACAUGAGGAUCACCCAUGUUUUAAUAGCUGAGGAUAUACGGGUGAAAACAGCAUAGUAGAAGGCGGGUGUA [SameState1 Malc#8],115
11,"AAAUAAAUGACUAAGGAUAUAUCAUAAGAAACAUGAGGAUCACCCAUGUAAUAAUAAAAAGGGUGAUAGAAGGUAGUCAACAAAC [74%, More Paria 4]",114
12,AAAAAAAAAACGCAGGAUAUCCAAAAAAAAACAUGAGGAUCACCCAUGUAAAAAAAAAAAAAAUGGGAGAAGGGUGAAAAAAAAAA [Louisiana 6 - Jieux - Same State 2],114
13,AAAGACGUGCAUCAGGAUAUGUUCCGAGACACAUGAGGAUCACCCAUGUGGACGAAGUCUCGGGCACAGAAGGGAUCACUCAUAA [Latibe],21.4
14,AGAAAUAAAACACAGGAUAUCCAAAAUAAAACAUGAGGAUCACCCAUGUAAAGAAAAGAAAAAUGGGAGAAGGGUGAAAAUAAGA [Mat - Same State 2 - JL mod - D19],69.7
15,UGUCCACAUGAGGAUCACCCAUGUCAGGAGGUGACAGGAUAUUGCGAAAAAAAAAAAAAGCAAGAAGGGUCUGAUU [SameState1-cac1],98.4
16,GAGAGGAAGAGAGAGGAUAUCCAAAGGAAAACAUGAGGAUCACCCAUGUAAAAGGUAGGAAAUUGGGAGAAGGCUCAAGAGAGAG [salish99-ss2-063],29.6
17,AUAAUAAGAAGCUAGGAUAUGCUAAAGUAAACAUGAGGAUCACCCAUGUAAAGAAAAAAACUCAUGUAGAAGGAGCAGAAAUAAA [moonwalk 6],106
18,AAAAAACAUGAGGAUCACCCAUGUAAUACAACAUCAGGAUAUUGAUUUUACUAUGUAUUGCAAGAAGGGAUGAAAA [Same State 1.3a (Same State 1 - Omei 2 )],45.2
19,AUAAAACAUGAGGAUCACCCAUGUAGAAAUAUGGGAGGAUAUACUAGAUCGAAAGAUCUAGUAGAAGGCCUUUAUA [JL Mod of Eli 6],45.9
20,"AGAAAUAAAAGAGAGGAUAUUCAAAAAGGGACAUGAGGAUCACCCAUGUAAAAGAAAAUAAAAUGGGAGAAGGCUCUAAAUAAAG [80%, More Helter Skelter 2]",127
21,"AAGAAACAUGAGGAUCACCCAUGUAAGAUUAUGGGAGGAUAUGCGAAAAGAAACAAAGAAGCAGAAGGCCUAAGAA [75%, Ex5 sub 1, 4]",77.3

row,Sequence,apparent KD of MS2 coat protein [nM]
1,AAUGAACAUGAGGAUCACCCAUGUUCUAAUAGUUGAGGAUAUAUGGGUGAAAAUAGCACAGUAGAAGGCGAGUGUA [SameState1 Malc#17],262
2,GGGAGACAUGAGGAUCACCCAUGUGAGAAGAGGCGAGGAUAUCGAAAGAAAGAAGAGAAACGAGAAGGCGCGAGCC [salish99-SS1-064],66.4
3,AAAAAACAUGAGGAUCACCCAUGUAAAAAAAUCGCAGGAUAUACGGUCGCGAAAGCGACCGUAGAAGGGCGAUCCU [Louisiana 3 - Jieux - Same State 1],75.3
4,AGCGAACAUGAGGAUCACCCAUGUGAAAAACAUAGAGGAUAUGUCGCAUGAGUGUAAAAGACAGAAGGCUAUCGCA [Mod of Nando],116
5,AAAAACGUGGCGUAGGAUAUACUAAUAUUCACAUGAGGAUCACCCAUGUUCAUAUAUAUGAACGAGUAGAAGGACGACGAAAAAA [Mat - Same state - Malcolm Mod - D106],107
6,"AGGAAACAUGAGGAUCACCCAUGUAAAAAAUGGGUAGGAUAUGCGAAAAGAAAAAGAAAAGCAGAAGGGCCAAGAA [62%, Something completely different, 3]",444
7,AGAAAUAAAGCGAAGGAUAUCCAAACCUAAACAUGAGGAUCACCCAUGUAAAAGAAAAUAAAAUGGGAGAAGGUCGCAAAUAAGA [Designing denovo 14],22.8
8,GGGAGACAUGAGGAUCACCCAUGUAGAAGGAUGGGAGGAUAUACAAAGACGAGAGUCAGAGUAGAAGGCCUAGGAA [salish99-ss1-189-4KCAL],58.5
9,AUAAAACAUGAGGAUCACCCAUGUAGAAAUAUGGGAGGAUAUACGAGGACGAAAGUCAAAGUAGAAGGCCUAAAAG [Mat - Same State 1 - Meechl mod - D120],40.6
10,AGAAUAAAAAGACAGGAUAUCCAAAAAAAAACAUGAGGAUCACCCAUGUAAAAAAAAUAAAAAUGGGAGAAGGGUCAAAAUAAGA [Mat - Same State 2 - JL mod - D64],35.9
11,AACAAUCUAUCUGAGGAUAUCAUGACAAAGACAUGAGGAUCACCCAUGUACCAGGAAACUGGUUAUGAGAAGGCAGAUAGAUUGA [SS2: 1117],18.8
12,CUUUCCGCGCUAUAGGAUAUGAAUGAACCUACAUGAGGAUCACCCAUGUCGAACUCGGUCCAAAAUCAGAAGGAUGGCGAGGCGC [Oratis],178
13,GAGAGACAUGAGGAUCACCCAUGUAGGAUUAUGGGAGGAUAUACAAAGACGAGAGUCAGAGUAGAAGGCCUAGGAA [salish99-ss1-137(!)],74.4
14,AAAUAAAUGACUCAGGAUAUAUCAUAGGGUACAUGAGGAUCACCCAUGUUUUAAUAACAUGUUUGGUAGAAGGGAGUCAAUAAAU [LROPPY Same State 2 - v07_deltaG=1.69],133
15,AUAAAACAUGAGGAUCACCCAUGUAGAAAUAUGGGAGGAUAUACUAGAUCGAAAGAUCUAGUAGAAGGCCUUUAAG [JL Mod of Eli 4],49.9
16,AAAAGACAUGAGGAUCACCCAUGUGAAAACGUAGGAGGAUAUGUCUGGAAACCAGACUGGACAGAAGGCCUGUGUC [SS1 - 32],33.1
17,GAAAAACAUGAGGAUCACCCAUGUAAGAUAAACACAGGAUAUGCGAAAAUAAAUAAAGAAGCAGAAGGGUGAAGAA [Mat - Same State 1 - Tesla mod - 73],26.5
18,AAAAAAAAAAGACAGGAUAUCCAAAAAAAAACAUGAGGAUCACCCAUGUAAAAAAAAAAAAAGUGGGAGAAGGGUCAAAAAAAAAA [Louisiana 4 - Jieux - Same State 2],38.4
19,AUUACAUAUAGUUAGGAUAUCAUAUGUAAGACAUGAGGAUCACCCAUGUCCUAAGAAUAGGUAAAUGAGAAGGAACAGUGAGUAU [JR_SS002_Sub419],23.9
20,AAAACACAUGAGGAUCACCCAUGUGCAAAAUUCGCAGGAUAUUCCUCAAUUAAAUGAAAGGAAGAAGGGUGAUAAA [Nob's Hobby 32 - Jieux - Same State 1],50.2
21,AAAAAAGAUCUAGAGGAUAUCCGAGUGGUAACAUGAGGAUCACCCAUGUGAAGAAAGGAACAUGAGGAGAAGGCUAGAUCAAAAA [JL Nando Mod 1],10.7
